In the assay the target is SARS-CoV-2 S Foldon his (prefusion stabilized spike ectodomain) (SARS-CoV-2 (Wuhan-Hu-1) | bacteriophage T4) (UniProt P0DTC2). The assay is described as follows: native gel or EMSA. (In EMSA bound probe runs differently from free probe, usually more slowly.)

A word on the stoichiometry N: it is a count of units in the complex or per binding partner. Substance “SARS-CoV-2 S Foldon his (prefusion stabilized spike ectodomain) (from UniProt P0DTC2 14-1138) (domain or fragment)” gave a stoichiometry N of 3.

For the origin of these results see publication PMC11068555.
